According to the Human Domainome abundance scans (Beltran et al. 2025):
± gives the uncertainty stated by the source.

B1: Death-inducer obliterator 1, residues 263 to 321; numbered along this chain, Q9BTC0 (parent)
chain: GYDPNALYCICRQPHNNRFMICCDRCEEWFHGDCVGISEARGRLLERNGEDYICPNCTI

Variants of: B1
Experiment: abundance fitness (aPCA) (normalised: wild type 0, dead -1); higher = more abundant; growth selection in yeast, the domain comes from the species named
Conditions: Homo sapiens

Abundance fitness, by site and new letter:
E39: H -0.277 ± 0.22 | A -0.262 ± 0.066 | N -0.017 ± 0.073 | G -0.217 ± 0.049 | M -0.21 ± 0.11 | I -0.226 ± 0.13 | D -0.144 ± 0.084 | F -0.043 ± 0.081 | Q -0.048 ± 0.11 | R -0.037 ± 0.074 | L -0.055 ± 0.062 | P -0.257 ± 0.086
F19: Y 0.058 ± 0.08 | S -0.143 ± 0.052 | W -0.016 ± 0.082 | V -0.166 ± 0.074
E27: C -0.237 ± 0.12 | P -0.004 ± 0.082 | L -0.107 ± 0.05 | V -0.193 ± 0.084 | W -0.09 ± 0.076 | I -0.158 ± 0.072 | G -0.074 ± 0.072 | D 0.012 ± 0.11 | K 0.237 ± 0.068 | T -0.007 ± 0.067 | R -0.071 ± 0.047 | Y 0.015 ± 0.067 | S -0.033 ± 0.053 | Q -0.066 ± 0.11
H31: Q -0.782 ± 0.29 | N -0.765 ± 0.14 | F -0.559 ± 0.12 | D -0.422 ± 0.12 | K -0.967 ± 0.26 | L -0.628 ± 0.088 | T -0.956 ± 0.14 | V -0.664 ± 0.093 | I -0.67 ± 0.096 | P -1.05 ± 0.22 | W -0.507 ± 0.11 | C -0.282 ± 0.075 | E -0.923 ± 0.22 | S -0.776 ± 0.09 | A -0.636 ± 0.1 | M -0.667 ± 0.11 | R -0.584 ± 0.1 | Y -0.732 ± 0.17
C23: M -1.26 ± 0.28 | Y -1.17 ± 0.17 | G -0.864 ± 0.1 | L -1.03 ± 0.1 | S -0.594 ± 0.084 | R -0.792 ± 0.095 | T -0.918 ± 0.14 | H -1 ± 0.24 | Q -0.821 ± 0.13 | D -0.532 ± 0.22 | E -0.966 ± 0.14 | V -1.08 ± 0.11 | W -0.942 ± 0.27 | K -0.408 ± 0.099 | P -0.296 ± 0.11
E28: L -0.055 ± 0.055 | A -0.153 ± 0.076 | I -0.235 ± 0.12 | V 0.015 ± 0.058 | N -0.231 ± 0.17 | K 0.045 ± 0.065 | M -0.056 ± 0.12 | F -0.028 ± 0.07 | S -0.106 ± 0.057 | C -0.032 ± 0.11 | D 0.125 ± 0.13 | T 0.065 ± 0.066 | H -0.075 ± 0.084 | P -0.742 ± 0.13 | W -0.019 ± 0.098 | Y -0.122 ± 0.09 | Q -0.198 ± 0.1
C26: F -1.06 ± 0.23 | W -0.416 ± 0.19 | H -0.672 ± 0.21 | Q -0.985 ± 0.25 | M -0.926 ± 0.14 | D -0.808 ± 0.17 | A -0.411 ± 0.13 | L -1.03 ± 0.13 | E -0.632 ± 0.14 | R -1.02 ± 0.16 | Y -0.794 ± 0.13 | P -0.599 ± 0.17 | I -0.578 ± 0.22 | K -0.863 ± 0.24 | T -0.782 ± 0.16 | G -0.72 ± 0.099
V35: N -0.171 ± 0.099 | C -0.113 ± 0.12 | S -0.403 ± 0.069 | G -0.333 ± 0.083 | M -0.043 ± 0.066 | P -0.345 ± 0.083 | R -0.387 ± 0.07 | Q -0.183 ± 0.1 | F -0.225 ± 0.083 | A -0.058 ± 0.07 | W -0.61 ± 0.16 | E -0.602 ± 0.1 | D -0.351 ± 0.094 | K -0.407 ± 0.077 | T -0.095 ± 0.074 | Y -0.707 ± 0.12 | I 0.159 ± 0.066
F30: P -0.711 ± 0.17 | S -0.266 ± 0.054 | K -0.349 ± 0.065 | N -0.013 ± 0.087 | C -0.08 ± 0.081 | G -0.269 ± 0.14 | W -0.325 ± 0.12 | Q -0.471 ± 0.15 | Y -0.041 ± 0.093 | D -0.749 ± 0.13 | H 0.004 ± 0.15 | V -0.327 ± 0.12 | I -0.289 ± 0.1 | M 0.013 ± 0.048 | T -0.38 ± 0.092 | R -0.306 ± 0.086 | E -0.954 ± 0.34 | L -0.006 ± 0.051 | A -0.283 ± 0.086
R25: D -0.027 ± 0.18 | V 0.063 ± 0.1 | N 0.101 ± 0.12 | L -0.057 ± 0.059 | K 0.118 ± 0.065 | S -0.019 ± 0.043 | W -0.261 ± 0.1 | I -0.197 ± 0.11 | H -0.032 ± 0.12 | E 0.163 ± 0.13 | F -0.068 ± 0.075 | M -0.023 ± 0.054 | C -0.191 ± 0.1 | Q 0.124 ± 0.061 | T 0.039 ± 0.096 | G -0.085 ± 0.075 | P -0.052 ± 0.077 | A 0.125 ± 0.076
C22: V 0.269 ± 0.066 | K 0.058 ± 0.055 | P 0.02 ± 0.069 | I 0.07 ± 0.063 | Y 0.12 ± 0.14 | E 0.023 ± 0.096 | H 0.056 ± 0.12 | T 0.185 ± 0.062 | R 0.11 ± 0.078 | N 0.029 ± 0.18 | A 0.116 ± 0.09 | Q 0.075 ± 0.064 | M 0.102 ± 0.068 | G 0.073 ± 0.073 | W 0.08 ± 0.074 | F 0.137 ± 0.12 | S 0.023 ± 0.056
D33: Y 0.13 ± 0.082 | M -0.195 ± 0.08 | R -0.002 ± 0.052 | H -0.101 ± 0.072 | W -0.237 ± 0.063 | T 0.008 ± 0.066 | N -0.259 ± 0.075 | C -0.013 ± 0.068 | V -0.198 ± 0.054 | G -0.027 ± 0.04 | K -0.028 ± 0.078 | Q -0.127 ± 0.11 | L -0.047 ± 0.045 | S -0.048 ± 0.059 | E -0.026 ± 0.077 | A -0.154 ± 0.078 | P -0.136 ± 0.059
I37: L -0.054 ± 0.062 | A -0.127 ± 0.061 | G -0.122 ± 0.053 | K 0.168 ± 0.097 | H -0.076 ± 0.14 | P -0.253 ± 0.088 | F -0.095 ± 0.097 | E -0.054 ± 0.07 | W 0.061 ± 0.049 | T 0.062 ± 0.09 | D -0.447 ± 0.21 | Y 0.094 ± 0.086 | Q 0.091 ± 0.066 | V -0.12 ± 0.072 | R -0.017 ± 0.057 | M -0.208 ± 0.11 | S -0.133 ± 0.072 | C -0.113 ± 0.12
C34: S -0.867 ± 0.11 | A -0.68 ± 0.12 | H -0.368 ± 0.066 | E -0.608 ± 0.12 | D -0.376 ± 0.16 | T -0.703 ± 0.092 | Q -0.644 ± 0.098 | F -1.12 ± 0.17 | R -0.697 ± 0.089 | N -0.937 ± 0.15 | M -0.831 ± 0.14 | K -0.763 ± 0.14 | P -0.803 ± 0.12 | L -0.805 ± 0.087 | W -1.03 ± 0.2 | G -0.726 ± 0.28
I21: R -0.156 ± 0.07 | T -0.177 ± 0.074 | V 0.132 ± 0.068 | G -0.575 ± 0.22 | L -0.051 ± 0.047 | K -0.04 ± 0.091 | Y 0.036 ± 0.094 | A -0.144 ± 0.1 | D -0.692 ± 0.21 | H -0.4 ± 0.097 | W -0.582 ± 0.32 | Q -0.164 ± 0.11 | F -0.243 ± 0.083 | E -0.494 ± 0.16 | M -0.104 ± 0.077
G32: L 0.025 ± 0.046 | S -0.036 ± 0.045 | I 0.169 ± 0.071 | R 0.026 ± 0.05 | P -0.155 ± 0.067 | M -0.054 ± 0.045 | H -0.009 ± 0.13 | Q -0.054 ± 0.084 | F -0.016 ± 0.1 | V -0.055 ± 0.059 | A 0.067 ± 0.075 | D 0.045 ± 0.097 | E 0.022 ± 0.05 | Y -0.421 ± 0.18 | T 0.084 ± 0.073 | N -0.179 ± 0.1 | W 0.05 ± 0.069
G36: A -0.153 ± 0.089 | H -0.111 ± 0.14 | I -0.15 ± 0.096 | E 0.057 ± 0.072 | D 0.038 ± 0.082 | F -0.256 ± 0.12 | R -0.072 ± 0.047 | P -0.425 ± 0.13 | W -0.469 ± 0.1 | S -0.002 ± 0.058 | C -0.122 ± 0.092 | M 0.009 ± 0.062 | L -0.135 ± 0.061 | Y -0.066 ± 0.069 | Q 0.013 ± 0.084 | V -0.173 ± 0.059
D24: G 0.166 ± 0.051 | K 0.192 ± 0.062 | A 0.139 ± 0.054 | E 0.026 ± 0.11 | N 0.196 ± 0.056 | V 0.258 ± 0.074 | C 0.048 ± 0.06 | W -0.227 ± 0.085 | R 0.138 ± 0.056 | Y -0.073 ± 0.077 | I -0.124 ± 0.12 | L -0.176 ± 0.059 | S -0.092 ± 0.068 | T -0.032 ± 0.076 | M 0.073 ± 0.068 | P 0.082 ± 0.064
S38: Y -0.193 ± 0.1 | P 0.001 ± 0.065 | N -0.245 ± 0.34 | I 0.155 ± 0.13 | M 0.118 ± 0.12 | K -0.17 ± 0.11 | G 0.03 ± 0.1 | D 0.197 ± 0.081 | Q -0.251 ± 0.13 | C -0.166 ± 0.16 | A -0.053 ± 0.13 | F -0.238 ± 0.13 | W -0.109 ± 0.2 | T 0.027 ± 0.071 | R -0.13 ± 0.056 | L -0.076 ± 0.059 | E -0.146 ± 0.13 | V 0.071 ± 0.067 | H -0.033 ± 0.15
M20: L -0.037 ± 0.061 | P -0.519 ± 0.15 | A -0.343 ± 0.1 | R -0.07 ± 0.057 | I 0.045 ± 0.073 | S 0.002 ± 0.051 | E -0.403 ± 0.19 | W -0.323 ± 0.12 | V -0.077 ± 0.082 | D -0.559 ± 0.28 | Y -0.304 ± 0.18 | F -0.216 ± 0.14 | Q -0.077 ± 0.11 | C -0.209 ± 0.1 | G -0.023 ± 0.069 | T 0.053 ± 0.074
W29: H -0.02 ± 0.12 | D 0.025 ± 0.18 | I 0.225 ± 0.064 | E 0.277 ± 0.1 | L 0.215 ± 0.049 | N 0.224 ± 0.14 | P 0.05 ± 0.071 | Y 0.064 ± 0.12 | A 0.161 ± 0.056 | G -0.02 ± 0.067 | S 0.17 ± 0.042 | R 0.173 ± 0.056 | T 0.242 ± 0.058 | M 0.176 ± 0.083 | V 0.252 ± 0.056 | C 0.045 ± 0.084 | K 0.2 ± 0.12
